Laboratory results from PMC6881179.

What was measured:
Assay in all cases: SPR
[1] = biological target: BES1 transferrin receptor (glycosylated heterodimer of BES1 ESAG6 and BES1 ESAG7) (Trypanosoma brucei) (UniProt Q8WPU1)
[2] = biological target: BES1e6BES17e7 chimera (BES1 ESAG6 with BES17 ESAG7) (Trypanosoma brucei) (UniProt Q8WPU1)
[3] = biological target: BES17 transferrin receptor (glycosylated heterodimer of BES17 ESAG6 and BES17 ESAG7) (Trypanosoma brucei) (UniProt Q8WPU1)
[4] = biological target: BES17e6BES1e7 chimera (BES17 ESAG6 with BES1 ESAG7) (Trypanosoma brucei) (UniProt Q8WPU1)

Substance: cow transferrin (from UniProt Q29443 20-704) (ligand)
- Kd [1]: 80.1 nM

Substance: human holo-transferrin (from UniProt P02787 20-698) (ligand)
- Kd [2]: 243 nM
- Kd [3]: 13.1 nM
- Kd [4]: 353 nM
